Test results published in the supplement of paper PMC10126150.
± gives the standard deviation of the averaged measurements.

Tested on: ATP
Assay: switch fluorescence ratio, 500 uM ATP over buffer (Cy3 cluster intensity, sum of 5 cycles each) (fold (ratio)); higher = stronger signal-on switching upon ATP binding; sequences stand for … in TCGTCGGCAGCGTCAGATGTGTATAAGAGACAGTTTTTTTTTTTTTTTTTTTTTTTTT…TC
Details: aptamer strand: ATP DNA aptamer (quencher-CACCTGGGGGAGTATTGCGGAGGAAGG + anchor), 100 nM annealed; ATP concentration: 500 uM
Outline: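 Cy3-labelled switching-strand clusters on a modified Illumina MiSeq flow-cell were annealed to 100 nM quencher-labelled ATP aptamer and imaged first in selection buffer, then after 15 min with 500 uM ATP at 22 °C. NaOH stripping and re-annealing separated each of five buffer/ATP cycles, and clusters outside 100-1000 RFU were excluded. The fluorescence ratio sums target-cycle Cy3 intensity over buffer-cycle Cy3 intensity per cluster and averages it per switch-domain sequence.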
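Further: ATP exposure 15 min at 22 °C before imaging.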

| Sequence | switch fluorescence ratio |
| --- | --- |
| GCGGGCCGGG | 0.988 ± 0.058 |
| GCGGGCCTTT | 1.015 ± 0.0066 |
| GCGGGGACGC | 0.9982 ± 0.0021 |
| GCGGGGATCT | 1.038 ± 0.0091 |
| GCGGGGATTT | 0.996 ± 0.023 |
| GCGGGGCTTA | 0.98878 ± 0.00093 |
| GCGGGGGAAG | 1 ± 0.02 |
| GCGGGGGACT | 0.997 ± 0.016 |
| GCGGGGGCGG | 1.01 ± 0.018 |
| GCGGGGGGCC | 1.05 ± 0.1 |
| GCGGGGGGCG | 1.01 ± 0.041 |
| GCGGGGGTAG | 1.17 ± 0.25 |
| GCGGGGGTCT | 1.03 ± 0.1 |
| GCGGGGTGTG | 1.016 ± 0.0033 |
| GCGGGTACTG | 1.001 ± 0.0052 |
| GCGGGTAGTG | 1.02 ± 0.028 |
| GCGGGTATTG | 0.964 ± 0.038 |
| GCGGGTCATG | 0.981 ± 0.021 |
| GCGGGTCTGG | 1.03 ± 0.022 |
| GCGGGTTGCT | 1.25 ± 0.39 |
| GCGGGTTGGC | 1.08 ± 0.011 |
| GCGGGTTGGG | 0.984 ± 0.047 |
| GCGGTACTGC | 0.999 ± 0.019 |

| Sequence | switch fluorescence ratio |
| --- | --- |
| GCGGTAGTTC | 1.02 ± 0.023 |
| GCGGTATGGG | 0.9645 ± 0.0046 |
| GCGGTCACGG | 0.9974 ± 0.0092 |
| GCGGTGACTG | 0.965 ± 0.018 |
| GCGGTTAGCT | 1.04 ± 0.066 |
| GCGGTTAGGC | 0.968 ± 0.034 |
| GCGGTTGCTG | 0.954 ± 0.04 |
| GCGGTTGTGC | 0.935 ± 0.051 |
| GCGTAAAAAG | 1.03 ± 0.011 |
| GCGTAAAAGG | 0.974 ± 0.034 |
| GCGTAAACGG | 1.06 ± 0.022 |
| GCGTAAAGGA | 1.02 ± 0.015 |
| GCGTAATCCG | 1.02 ± 0.042 |
| GCGTAATGTT | 0.999 ± 0.022 |
| GCGTACGGCG | 0.993 ± 0.054 |
| GCGTAGATGG | 1.006 ± 0.0087 |
| GCGTATGCCC | 1.019 ± 0.0062 |
| GCGTATGGGG | 0.977 ± 0.027 |
| GCGTATTGGC | 1.03 ± 0.013 |
| GCGTCCAGTT | 1.09 ± 0.12 |
| GCGTCCGGGA | 1.21 ± 0.092 |
| GCGTCGCTTT | 0.952 ± 0.046 |
| GCGTCGGTGT | 0.98 ± 0.01 |

| Sequence | switch fluorescence ratio |
| --- | --- |
| GCGTCTATTG | 0.9987 ± 0.0051 |
| GCGTCTGGGC | 0.992 ± 0.015 |
| GCGTGATAGA | 1.04 ± 0.017 |
| GCGTGCAATG | 1.026 ± 0.0018 |
| GCGTGCAGGC | 1.03 ± 0.023 |
| GCGTGCGGGC | 1.03 ± 0.043 |
| GCGTGCGGGG | 1.028 ± 0.0098 |
| GCGTGCTGTA | 1.013 ± 0.006 |
| GCGTGGAGGA | 1.05 ± 0.026 |
| GCGTGGGGAA | 1.07 ± 0.036 |
| GCGTGGGTTG | 0.998 ± 0.048 |
| GCGTGTGGGG | 1.02 ± 0.021 |
| GCGTGTGGTC | 1.02 ± 0.039 |
| GCGTGTGGTG | 1.02 ± 0.043 |
| GCGTGTTAGT | 1.023 ± 0.0021 |
| GCGTTAAGCA | 0.968 ± 0.07 |
| GCGTTAGCCA | 1.01 ± 0.022 |
| GCGTTGCAGG | 1.02 ± 0.018 |
| GCGTTTAATA | 0.997 ± 0.014 |
| GCGTTTAGGG | 1.03 ± 0.054 |
| GCGTTTTCGT | 0.972 ± 0.013 |
| GCTAAAATTT | 1 ± 0.029 |
| GCTAATATGG | 0.998 ± 0.044 |

| Sequence | switch fluorescence ratio |
| --- | --- |
| GCTAATGGTC | 0.977 ± 0.085 |
| GCTAATGTTA | 1.01 ± 0.03 |
| GCTAATGTTT | 0.998 ± 0.031 |
| GCTAATTATA | 1.01 ± 0.015 |
| GCTACCGGTG | 1.1 ± 0.072 |
| GCTAGAAATG | 0.978 ± 0.043 |
| GCTAGATCAC | 1.02 ± 0.025 |
| GCTAGCCAAA | 0.998 ± 0.011 |
| GCTAGCGGTC | 1.08 ± 0.02 |
| GCTAGCGTGG | 1.02 ± 0.091 |
| GCTAGCTCAG | 1.023 ± 0.008 |
| GCTAGGGCGT | 0.972 ± 0.051 |
| GCTAGGTGAC | 1.1 ± 0.037 |
| GCTAGGTGTA | 1.12 ± 0.043 |
| GCTAGTAAGA | 1.014 ± 0.008 |
| GCTATAAGTG | 0.969 ± 0.027 |
| GCTATATAGT | 1.01 ± 0.011 |
| GCTATATGGC | 1.01 ± 0.024 |
| GCTATCTGGA | 0.998 ± 0.031 |
| GCTATGAACC | 1.0349 ± 0.0008 |
| GCTATGATAA | 0.9933 ± 0.0072 |
| GCTATGCCTA | 0.997 ± 0.023 |
| GCTATGGGAT | 0.995 ± 0.04 |

| Sequence | switch fluorescence ratio |
| --- | --- |
| GCTATTATAT | 1.02 ± 0.015 |
| GCTATTGGAA | 0.993 ± 0.022 |
| GCTCAAGGTA | 1.006 ± 0.0044 |
| GCTCAATTGG | 1.018 ± 0.006 |
| GCTCAGTAGT | 1.03 ± 0.027 |
| GCTCATAGAT | 0.988 ± 0.013 |
| GCTCATAGCA | 1.02 ± 0.022 |
| GCTCCAGTTA | 1.178 ± 0.0045 |
| GCTCCCAGGA | 1.92 ± 0.026 |
| GCTCCCGGGG | 1.24 ± 0.12 |
| GCTCCGGGCG | 1.13 ± 0.075 |
| GCTCCTACGA | 1.46 ± 0.046 |
| GCTCGACTTT | 1.02 ± 0.012 |
| GCTCGGATAA | 1.0306 ± 0.00026 |
| GCTCGTGATA | 1.21 ± 0.05 |
| GCTCTATGTA | 1.03 ± 0.014 |
| GCTCTCTTTT | 0.9805 ± 0.0037 |
| GCTCTGAGTA | 1.04 ± 0.073 |
| GCTCTGGCAA | 1.57 ± 0.07 |
| GCTCTTATTA | 0.977 ± 0.021 |
| GCTCTTGGGC | 0.999 ± 0.012 |
| GCTCTTTGAC | 0.987 ± 0.029 |
| GCTCTTTTGG | 0.997 ± 0.019 |

| Sequence | switch fluorescence ratio |
| --- | --- |
| GCTGAAAGTG | 1 ± 0.057 |
| GCTGAACTTC | 0.9804 ± 0.0089 |
| GCTGAAGGTT | 1.25 ± 0.36 |
| GCTGAATAAG | 0.9815 ± 0.0088 |
| GCTGACTGGT | 0.9939 ± 0.001 |
| GCTGAGGTGA | 1.02 ± 0.042 |
| GCTGATACTT | 1.07 ± 0.02 |
| GCTGATGCGG | 0.999 ± 0.012 |
| GCTGATGGTG | 0.989 ± 0.02 |
| GCTGCGACCA | 1.131 ± 0.0024 |
| GCTGCTAGTG | 0.97 ± 0.017 |
| GCTGCTGTAT | 1.01 ± 0.022 |
| GCTGGAGGTC | 1.01 ± 0.03 |
| GCTGGCAGAC | 1.23 ± 0.032 |
| GCTGGCTGGC | 1.01 ± 0.11 |
| GCTGGGAATA | 0.9499 ± 0.0028 |
| GCTGGGCACG | 0.954 ± 0.015 |
| GCTGGGCATT | 0.99173 ± 0.00022 |
| GCTGGGCGGC | 0.95 ± 0.014 |
| GCTGGGGGAG | 0.982 ± 0.067 |
| GCTGGGGGGT | 1 ± 0.044 |
| GCTGGGTATT | 0.9435 ± 0.0054 |
| GCTGGTATTG | 1 ± 0.031 |

| Sequence | switch fluorescence ratio |
| --- | --- |
| GCTGGTGTTG | 1 ± 0.013 |
| GCTGGTTAAA | 0.97834 ± 0.00053 |
| GCTGTAAAGA | 0.983 ± 0.029 |
| GCTGTAAGGG | 0.988 ± 0.028 |
| GCTGTAGGCC | 1.02 ± 0.014 |
| GCTGTAGGTG | 1.039 ± 0.0033 |
| GCTGTAGGTT | 1 ± 0.011 |
| GCTGTATGAG | 0.985 ± 0.029 |
| GCTGTATGGC | 1.01 ± 0.027 |
| GCTGTCATGA | 0.9853 ± 0.0074 |
| GCTGTGGTT | 0.9376 ± 0.00097 |
| GCTGTTACGG | 0.983 ± 0.016 |
| GCTGTTGTCG | 0.974 ± 0.052 |
| GCTTAAGGGC | 0.956 ± 0.033 |
| GCTTACAGGA | 1.01 ± 0.033 |
| GCTTAGGATT | 1.01 ± 0.033 |
| GCTTATTAGT | 1 ± 0.0042 |
| GCTTCAGGGT | 0.989 ± 0.025 |
| GCTTCCGGGG | 1.27 ± 0.06 |
